Measurements published in article PMC10226619, “The SAGA HAT module is tethered by its SWIRM domain and modulates activity of the SAGA DUB module” (Biochimica et biophysica acta. Gene regulatory mechanisms, 2023).

T1: Spt7 with a C-terminal TAP tag (S. cerevisiae, UniProt P35177 1-1332)
T1 construct: Spt7, SAGA core subunit, S. cerevisiae; expressed at endogenous level; SAGA was captured on IgG Sepharose by the TAP tag and released from the beads by TEV cleavage of the tag; also called Spt7-TAP; not shown: TAP, C-terminal, kept
T1 sequence (looked up): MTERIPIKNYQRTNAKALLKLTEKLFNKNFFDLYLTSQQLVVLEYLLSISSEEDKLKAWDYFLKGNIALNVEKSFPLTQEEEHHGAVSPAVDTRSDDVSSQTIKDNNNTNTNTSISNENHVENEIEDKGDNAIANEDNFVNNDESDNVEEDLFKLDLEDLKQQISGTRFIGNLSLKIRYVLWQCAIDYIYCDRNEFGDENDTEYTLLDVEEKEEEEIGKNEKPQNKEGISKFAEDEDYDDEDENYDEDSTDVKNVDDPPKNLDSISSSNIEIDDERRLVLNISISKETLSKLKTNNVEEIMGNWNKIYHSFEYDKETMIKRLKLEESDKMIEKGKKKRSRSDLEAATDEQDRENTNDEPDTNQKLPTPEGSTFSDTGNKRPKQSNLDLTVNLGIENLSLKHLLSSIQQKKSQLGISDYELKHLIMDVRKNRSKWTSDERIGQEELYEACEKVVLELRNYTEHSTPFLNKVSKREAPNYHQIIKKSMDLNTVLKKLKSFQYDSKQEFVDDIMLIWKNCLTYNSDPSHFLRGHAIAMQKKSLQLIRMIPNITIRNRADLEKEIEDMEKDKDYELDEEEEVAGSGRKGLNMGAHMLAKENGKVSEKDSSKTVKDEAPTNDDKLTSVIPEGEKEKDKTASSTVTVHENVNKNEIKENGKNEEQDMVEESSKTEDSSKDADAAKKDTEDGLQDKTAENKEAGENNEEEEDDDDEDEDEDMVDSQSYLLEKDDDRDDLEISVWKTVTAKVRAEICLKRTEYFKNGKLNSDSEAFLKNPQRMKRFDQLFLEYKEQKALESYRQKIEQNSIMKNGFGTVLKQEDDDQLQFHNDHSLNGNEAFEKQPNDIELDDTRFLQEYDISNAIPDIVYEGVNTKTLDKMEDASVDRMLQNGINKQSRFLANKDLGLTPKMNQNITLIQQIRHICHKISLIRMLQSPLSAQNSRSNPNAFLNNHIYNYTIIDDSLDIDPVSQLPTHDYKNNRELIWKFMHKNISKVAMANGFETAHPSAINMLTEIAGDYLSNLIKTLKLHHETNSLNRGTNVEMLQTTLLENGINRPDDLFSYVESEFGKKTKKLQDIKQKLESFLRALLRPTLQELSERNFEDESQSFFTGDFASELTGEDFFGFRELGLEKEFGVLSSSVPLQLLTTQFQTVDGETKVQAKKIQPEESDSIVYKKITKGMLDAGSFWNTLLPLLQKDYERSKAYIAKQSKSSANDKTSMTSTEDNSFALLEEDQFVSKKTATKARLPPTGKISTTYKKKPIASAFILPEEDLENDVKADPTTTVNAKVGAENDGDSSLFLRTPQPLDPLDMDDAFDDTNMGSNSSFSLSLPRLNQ


target: T1, Spt7 with a C-terminal TAP tag; assay: affinity purification with mass spectrometry; SAGA purified by Spt7-TAP from yeast with the Ada2 SWIRM domain deleted (YCW20): IgG Sepharose, TEV cleavage, HiTrap Q; LC-MS/MS, total spectrum counts normalized to Spt7; conditions: partners not purified

fold depletion against wild type SAGA [fold] | Binder
~7 | Gcn5 (endogenous) (enzyme, S. cerevisiae (endogenous in yeast), UniProt Q03330 1-439, looked up, Gcn5, histone acetyltransferase subunit of the SAGA HAT module, S. cerevisiae; source: endogenous, S. cerevisiae lysate / whole cell extract) MVTKHQIEEDHLDGATTDPEVKRVKLENNVEEIQPEQAETNKQEGTDKENKGKFEKETERIGGSEVVTDVEKGIVKFEFDGVEYTFKERPSVVEENEGKIEFRVVNNDNTKENMMVLTGLKNIFQKQLPKMPKEYIARLVYDRSHLSMAVIRKPLTVVGGITYRPFDKREFAEIVFCAISSTEQVRGYGAHLMNHLKDYVRNTSNIKYFLTYADNYAIGYFKKQGFTKEITLDKSIWMGYIKDYEGGTLMQCSMLPRIRYLDAGKILLLQEAALRRKIRTISKSHIVRPGLEQFKDLNNIKPIDPMTIPGLKEAGWTPEMDALAQRPKRGPHDAAIQNILTELQNHAAAWPFLQPVNKEEVPDYYDFIKEPMDLSTMEIKLESNKYQKMEDFIYDARLVFNNCRMYNGENTSYYKYANRLEKFFNNKVKEIPEYSHLID
~7 | Ada2 ΔSWIRM (Δ residues 349–434, chromosomal deletion) (natural protein, S. cerevisiae, UniProt Q02336 1-434, looked up, Ada2, S. cerevisiae, without the SWIRM domain (residues 349–434 substituted with KanMX in the gene); source: S. cerevisiae strain YCW20, SWIRM domain deleted by homologous recombination, in lysate) MSNKFHCDVCSADCTNRVRVSCAICPEYDLCVPCFSQGSYTGKHRPYHDYRIIETNSYPILCPDWGADEELQLIKGAQTLGLGNWQDIADHIGSRGKEEVKEHYLKYYLESKYYPIPDITQNIHVPQDEFLEQRRHRIESFRERPLEPPRKPMASVPSCHEVQGFMPGRLEFETEFENEAEGPVKDMVFEPDDQPLDIELKFAILDIYNSRLTTRAEKKRLLFENHLMDYRKLQAIDKKRSKEAKELYNRIKPFARVMTAQDFEEFSKDILEELHCRARIQQLQEWRSNGLTTLEAGLKYERDKQARISSFEKFGASTAASLSEGNSRYRSNSAHRSNAEYSQNYSEN
~7 | Sgf29 (endogenous) (natural protein, S. cerevisiae (endogenous in yeast), UniProt P25554 1-259, looked up, Sgf29, SAGA HAT module subunit, S. cerevisiae; source: endogenous, S. cerevisiae lysate / whole cell extract) MDGYWDVVVSSLQDIYNANEVIPFDDELQTKKLNFLNMSKDQLQLHLNTFQEHMENVNRVHRILDNVRSNLSLMLNQSREEKSEENTEDAEEGEGTRMALSQGKKAVGKVGRSYWTSEYNPNAPILVGSEVAYKPRRGSADGEWIQCEVLKVVADGTRFEVRDPEPDELGNSGKVYKCNRKELLLIPPGFPTKNYPPGTKVLARYPETTTFYPAIVIGTKRDGTCRLRFDGEEEVDKETEVTRRLVLPSPTALANLARK
~7 | Ada3 (endogenous) (natural protein, S. cerevisiae (endogenous in yeast), UniProt P32494 1-702, looked up, Ada3, SAGA HAT module subunit, S. cerevisiae; source: endogenous, S. cerevisiae lysate / whole cell extract) MPRHGRRGKLPKGEKLPKKEGGDNTPSKLLSSMLKTLDLTFERDIGMLNGKSVRSIPNKKTLLELQSQLDSLNEILGTIARGDQETIEALRKIRDSKNEKQANDEKQETSNADGQHESSTATEETNIIDKGVQSPPKPPPSNEISGTIENDVESIKQAADNMAKEEINEDKDLQVHRDQPREKRPFDSETENRATENENTQRPDNKKQKIDVDKMENDPTVKNPKSEFVVSQTLPRAAAALGLFNEEGLESTGEDFLKKKYNVASYPTNDLKDLLPGELPDMDFSHPKPTNQIQFNTFLAFVENFFKDLSDDNLKFLKMKYIIPDSLQFDKTYDPEVNPFIIPKLGPLYTDVWFKDENDKNSAYKKPSPYSNDASTILPKKSANELDDNALESGSISCGPLLSRLLSAVLKDDNDKSELQSSKIIRDGGLPRTGGEDDIQSFRNNNNDTVDMTLSQENGPSVQTPDNDIDEEASFQAKLAENKGSNGGTTSTLPQQIGWITNGINLDYPTFEERLKRELKYVGIYMNLPKDENNPNSDDPDWVTGREDDEISAELRELQGTLKQVTKKNQKRKAQLIPLVERQLAWQEYSSILEDLDKQIDQAYVKRIRVPKKRKKHHTAASNNVNTGTTSQIAQQKAANSSLKSLLDKRQRWINKIGPLFDKPEIMKRIPNESVFKDMDQEEDEDEADVFAQNTNKDVELN
